# Molecular target: Tail-T(ii)-MH chimeric adenovirus spike protein (adenovirus serotype 5; reovirus type 3 Dearing) (UniProt P11818)
substance,measurement,value
anti-His antibody (penta-His MAb; Qiagen),transduction of 293HissFv.rec cells (luciferase activity),90%
